Paper PMC12294753, “Development of INER-PP-F11N as the Peptide-Radionuclide Conjugate Drug Against CCK2 Receptor-Overexpressing Tumors” (International Journal of Molecular Sciences, 2025)
“Also recorded” adds a separate entry of the source. Read-outs that look alike come from different tables or passages of the source. Where a SMILES comes first, the peptide text is derived from it. [ ]: non-standard residue; d: D form. The star is where a group is joined. DOTA = O=C(O)CN1CCN(CC(=O)O)CCN(CC(=O)*)CCN(CC(=O)O)CC1; Butanoyl(4-(4-MePh)) = Cc1ccc(CCCC(=O)*)cc1; Nle = CCCC[C@H](N)C(=O)O; Ahx = NCCCCCC(=O)O

Assays:
[1] = Metabolic stability analysis (radio-HPLC) in PBS at 4 °C or FBS at 37 °C; format: in vitro ADME
Protocol: DOTA-PP-F11N, DOTA-INER-PP-F11N-1, and DOTA-INER-PP-F11N-2 were labeled with In-111 and Lu-177 for further experiments. The detection of free In-111 after ITLC extension was defined as 0% radiolabeling efficiency. […]
To measure the labeling efficiency, ITLC was performed on glass microfiber chromatography paper impregnated with a silica gel (Agilent Technologies, Santa Clara, CA, USA) as described previously. Briefly, the ITLC sheets were developed with 10% methanol as solvent (Rf free Lu-177 = 0, Rf Lu-177-labeled compounds = 1) and measured using a radioactive scanner (AR-2000 radio-TLC […] Imaging Scanner, Bioscan, France). The sample was mixed with acetonitrile at a 1:1 (v/v) ratio, followed by centrifugation at 16,000× g for 5 min. The resulting supernatant was subsequently analyzed using HPLC with UV (220[…]) and radio detector with a Zorbax SB-C18 column (Agilent Technologies, Santa Clara, CA, USA). The flow rate was 0.8 mL/min, with the gradient mobile phase going from 90% A […] buffer (0.1% TFA in water) and 10% B buffer (0.1% TFA in acetonitrile) to 90% B buffer […] within 20 min.

[2] = Histopathological examinations (H&E) of mice after radiolabeled drug administration; format: in vivo; details: light microscopy
From the text: To investigate the pathological alterations in tumor-bearing mice receiving radiopharmaceuticals, […] tissues, including tumors, heart, liver, and kidneys, were collected. The specimens were first fixed using 10% buffered neutral formalin and then embedded in paraffin. Sections of 3–5 μm thickness were stained with H&E and examined using light microscopy (40 × and 20 ×).

A431-CCK2R (+) tumors = assay: Therapeutic responses to Lu-177-labeled CCK2R analogs in CCK2R-expressing cancer-bearing mice; format: in vivo; details: 200 μCi intravenously
Protocol: (§1) To generate A431-CCK2R (+) and A431-CCK2R (−) tumor-bearing mice models, mice (3 per group) were inoculated subcutaneously with 6 × 10^6 cells, which were injected into the inner right back leg for A431-CCK2R (+) tumors and the left back leg for A431-CCK2R (−) tumors, respectively. These xenografts were monitored until the tumor volume reached approximately 200–500 mm^3 [57]. The mice were then randomized to subgroups for further experiments. The formula for calculating tumor volume (V) is V = 4/3πr^3.
(§2) We investigated therapeutic responses in mice receiving [^177Lu]Lu-DOTA-PP-F11N, [^177Lu]Lu-DOTA-INER-PP-F11N-1, or [^177Lu]Lu-DOTA-INER-PP-F11N-2. A431-CCK2R (+) and A431-CCK2R (−) cells were implanted subcutaneously into the right and left inner hind legs of NOD/SCID mice. Once the tumors reached a volume of 200–500 mm^3, the mice were intravenously injected with either 200 μCi of [^177Lu]Lu-DOTA-PP-F11N, [^177Lu]Lu-DOTA-INER-PP-F11N-1, [^177Lu]Lu-DOTA-INER-PP-F11N-2, or PBS (as a non-radioactive control). The NanoSPECT/CT® plus scanner system (Mediso Medical Imaging Systems; Budapest, Hungary) was utilized to detect and image tumors in the mouse models. Tumor volumes were measured twice a week for 4 weeks.

[3] = Biodistribution study in tumor-bearing mice; format: in vivo; details: mouse, intravenous, total radioactivity, 72 h after tail-vein injection, tumor-bearing mice
Protocol: as §1
Mice were sacrificed via CO2 asphyxiation 72 h after intravenous injection of 50–100 μCi (50–100 μL) of radiolabeled DOTA-PP-F11N, DOTA-INER-PP-F11N-1, or DOTA-INER-PP-F11N-2 [58]. Tumors and organs of interest were collected for further pathological examinations. The PerkinElmer 2480 Automatic Gamma Counter (PerkinElmer, Waltham, MA, USA) was used to measure radioactivity; the data are presented as the percentage injected dose per gram of tissue (%ID/g).

[4] = system: A431-CCK2R (−)/A431-CCK2R (+) tumor-bearing mice; assay: NanoSPECT/CT imaging of tumor-bearing mice; format: in vivo; details: for radiotracer accumulation in the tumor region on NanoSPECT/CT: tail-vein injection, Lu-177-labeled
Protocol: as §1
The NanoSPECT/CT® plus scanner system (Mediso Medical Imaging Systems; Budapest, Hungary) was utilized to detect in vivo tumors in the in vivo animal models. Both A431-CCK2R (+) and A431-CCK2R (−) cancer cells were inoculated subcutaneously into the inner right leg and left back leg of the mice. Radiopharmaceuticals—[^111In]In-DOTA-PP-F11N, [^111In]In-DOTA-INER-PP-F11N-1, and [^111In]In-DOTA-INER-PP-F11N-2 (1 mCi)—were injected once the mean tumor volume reached approximately 200–500 mm^3. Inhalant (1–2% isoflurane) was used to anesthetize the mice during imaging acquisition. X-ray CT images and SPECT images were taken 4, 24, and 48 h after tail-vein injection. NanoSPECT imaging was acquired using nine multi-pinhole gamma detectors with high-resolution collimators. The energy window was set at 171 and 245 KeV ± 10%, the image size was set at 256 × 256, and the field of view was set at 60 mm × 100 mm.
For Lu-177, only 208 keV photons were used for imaging, with an energy window set at 208 keV ± 10%. Although Lu-177 also emits lower abundance photons at 113 keV, the 208 keV photon provides better image quality due to reduced scatter and higher energy resolution. Therefore, the gamma camera energy windows were specifically tailored to the photon emission profiles of each radionuclide to ensure optimal detection efficiency and image accuracy.
as §2

A431-CCK2R (−) cells = assay: In vitro binding and internalization assay, A431-CCK2R (−) cells; format: cell-based; details: 37 °C
Protocol: (§3) In vitro binding and internalization activities were measured using a gamma counter (WIZARD 1480, Perkin-Elmer). Briefly, A431-CCK2R (+) and A431-CCK2R (−) cells were seeded on 24-well plates (1 × 10^5 cells/well, Corning, NY, USA) for 12 h. The plated cells were treated with 30 ± 10 GBq/µmol of [^177Lu]Lu-DOTA-PP-F11N, [^177Lu]Lu-DOTA-INER-PP-F11N-1, or [^177Lu]Lu-DOTA-INER-PP-F11N-2 (1 mL/well) and then incubated at 37 °C for either 1 or 4 h. After incubation, the medium was collected, and the cells were then washed with ice-cold buffer. The medium and washed PBS were collected in tube 0. The washed cells were treated with glycine–HCl buffer (0.1 M, pH 3.0) and incubated for 10 min. After incubation, cells were washed again with glycine–HCl buffer. Both glycine-HCl buffer solutions were collected in tube 1. The washed cells were treated with 1 N NaOH (1 mL/well) and incubated for 10 min for cell lysis. After incubation, the cells were washed once with 1 N NaOH. The cell lysate solution was collected in tube 2. All tubes were analyzed using a gamma counter to detect radioactivity. Data were obtained from at least three independent experiments. The respective formulae for in vitro surface binding activity and internalization were as follows:Surface binding = tube 1/(tube 0 + tube 1 + tube 2) × 100%.Internalization = tube 2/(tube 0 + tube 1 + tube 2) × 100%.

A431-CCK2R (+) cells = assay: In vitro binding and internalization assay, A431-CCK2R (+) cells; format: cell-based; parameters: surface binding activity / internalization activity: concentration or dose not given beside the values; details: for internalization activity / surface binding activity: A431-CCK2R (+) cells, 37 °C
Protocol: as §3

[5] = Lu-177-labeled, 37 °C FBS, 144 h
[6] = labeled with Lu-177, each time point (Figure 2C, 4 °C PBS)
[7] = kidneys, read-out: radiotracer accumulation in the kidneys
[8] = tumor (A431-CCK2R (+)), read-out: tumor uptake of radiopharmaceuticals
[9] = 4 °C PBS, 144 h after Lu-177 labeling

Row | Molecule | metabolic stability [1, 5] | metabolic stability [1, 6] | histopathological changes in the kidneys [2] | histopathological changes in the liver and heart [2] | tumor volume at D23 (A431-CCK2R (+) tumors) [mm^3] | tissue uptake at 72 h [3, 7] [%ID/g] | tissue uptake at 72 h [3, 8] [%ID/g] | metabolic stability [1, 9] | radiotracer accumulation in the tumor region on NanoSPECT/CT [4] | internalization activity (A431-CCK2R (−) cells; 1 h) [%IA/106 cells] | surface binding activity (A431-CCK2R (−) cells; 1 h) [%IA/106 cells] | internalization activity (A431-CCK2R (−) cells; 4 h) [%IA/106 cells] | internalization activity (A431-CCK2R (+) cells; 1 h) [%] | surface binding activity (A431-CCK2R (+) cells; 1 h) [%] | internalization activity (A431-CCK2R (+) cells; 4 h) [%] | surface binding activity (A431-CCK2R (+) cells; 4 h) [%] | also measured
1 | DOTA-(Glu)6-Ala-Tyr-Gly-Trp-Nle-Asp-Phe-NH2 [DOTA-PP-F11N, reference compound] | 56.4 ± 0.1% | more than 90% | – | – | – | – | – | – | – | – | – | – | – | – | – | – | metabolic stability ([1]; In-111-labeled, 37 °C FBS (Figure 2B)): less metabolic stability; metabolic stability ([1]; Lu-177-labeled, 37 °C FBS, 4 h): 94.6 ± 0.1%
2 | DOTA-Lys(-4-TBA)-AHA-(Glu)6-Ala-Tyr-Gly-Trp-Nle-Asp-Phe-NH2 [DOTA-INER-PP-F11N-2] | – | more than 90% | – | – | – | – | – | – | – | – | – | – | – | – | – | – | –
3 | CCCC[C@H](NC(=O)[C@H](Cc1c[nH]c2ccccc12)NC(=O)CNC(=O)[C@H](Cc1ccc(O)cc1)NC(=O)[C@H](C)NC(=O)[C@@H](CCC(=O)O)NC(=O)[C@@H](CCC(=O)O)NC(=O)[C@@H](CCC(=O)O)NC(=O)[C@@H](CCC(=O)O)NC(=O)[C@@H](CCC(=O)O)NC(=O)[C@@H](CCC(=O)O)NC(=O)CN1CCN(CC(=O)O)CCN(CC(=O)O)CCN(CC(=O)O)CC1)C(=O)N[C@@H](CC(=O)O)C(=O)N[C@@H](Cc1ccccc1)C(N)=O [[^177Lu]Lu-DOTA-PP-F11N, metal not drawn, reference compound] | below 60% | – | renal tubular necrosis (arrow 1), moderate renal tubular casts (arrow 2), slight renal tubular degeneration (arrow 3), and neutrophil infiltration (arrow 4); also recorded: moderate/severe renal tubular necrosis (arrow 1), moderate renal tubular casts (arrow 2), slight renal tubular degeneration (arrow 3), and slight infiltration of neutrophils (arrow 4) | no significant histopathological changes | 1884.72 ± 333.13 | 14.2 ± 5.9 | 0.33 ± 0.02 | more than 95% | relatively low | 1.26 ± 0.06 | 3.42 ± 0.21 | 1.29 ± 0.01 | 37.37 ± 3.04 | 6.60 ± 0.17 | 71.44 ± 3.52 | 11.51 ± 3.16 | histopathological changes in the kidneys ([2]; listed as PP-F11N): renal tubular necrosis and inflammation; washout of radiotracer accumulation in both kidneys, time after injection ([4]; NanoSPECT/CT, accumulation from one hour): more than 48 h; surface binding activity (A431-CCK2R (−) cells; 4 h): 3.24 ± 0.15 %IA/106 cells
4 | DOTA-Lys(-4-TBA)-6-AMBA-(Glu)6-Ala-Tyr-Gly-Trp-Nle-Asp-Phe-NH2 [DOTA-INER-PP-F11N-1] | 99% | more than 90% | – | – | – | – | – | – | – | – | – | – | – | – | – | – | –
5 | O=C([O-])CN1CCN(CC(=O)[O-])CCN(CC(=O)[O-])CCN(CC(=O)[O-])CC1.[177Lu+3] [[^177Lu]Lu-DOTA, reference compound] | – | – | – | – | 3237.10 ± 846.25 | – | – | – | – | – | – | – | – | – | – | – | clearance of radiotracer accumulation in the urinary bladder, time after injection ([4]; NanoSPECT/CT): ≤ 24 h
6 | CCCC[C@H](NC(=O)[C@H](Cc1c[nH]c2ccccc12)NC(=O)CNC(=O)[C@H](Cc1ccc(O)cc1)NC(=O)[C@H](C)NC(=O)[C@@H](CCC(=O)O)NC(=O)[C@@H](CCC(=O)O)NC(=O)[C@@H](CCC(=O)O)NC(=O)[C@@H](CCC(=O)O)NC(=O)[C@@H](CCC(=O)O)NC(=O)[C@@H](CCC(=O)O)NC(=O)CCCCCNC(=O)[C@H](CCCCNC(=O)CCCc1ccc(C)cc1)NC(=O)CN1CCN(CC(=O)O)CCN(CC(=O)O)CCN(CC(=O)O)CC1)C(=O)N[C@@H](CC(=O)O)C(=O)N[C@@H](Cc1ccccc1)C(N)=O [[^177Lu]Lu-DOTA-INER-PP-F11N-2, metal not drawn] ({DOTA}-K(Butanoyl(4-(4-MePh)))[Ahx][dE][dE][dE][dE][dE][dE]AYGW[Nle]DF-NH2) | > 99% | – | no significant histopathological changes | no significant histopathological changes | 1162.60 ± 275.92 | 7.4 ± 1.5 | 0.88 ± 0.25 | more than 95% | imaging of the tumor was limited | 0.25 ± 0.04 | 0.59 ± 0.01 | 0.15 ± 0.18 | 41.58 ± 3.46 | 5.51 ± 0.45 | 81.26 ± 7.27 | 8.11 ± 2.65 | radioactivity within the kidneys on NanoSPECT/CT ([4]; compared with Lu-177-labeled PP-F11N over the same period): significantly lower; enhancement of internalization activity compared with PP-F11N (A431-CCK2R (+) cells; A431 CCK2R (+) cells, compared with conventional [^177Lu]Lu-DOTA-PP-F11N): 13.7%
